T1: human FcγRIIa R allotype extracellular domain with C-terminal His-tag (human, UniProt P12318 34-217)
T1 construct: extracellular domain; also called hFcγR IIa R
T1 sequence (looked up): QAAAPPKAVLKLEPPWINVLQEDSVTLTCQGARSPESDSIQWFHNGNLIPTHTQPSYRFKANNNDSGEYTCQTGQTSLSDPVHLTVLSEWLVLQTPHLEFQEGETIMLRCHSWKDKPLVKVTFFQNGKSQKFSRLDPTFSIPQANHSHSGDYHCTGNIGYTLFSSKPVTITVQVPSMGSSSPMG

T2: human FcγRIIa H allotype extracellular domain with C-terminal His-tag (human, UniProt P12318 34-217)
T2 construct: extracellular domain; also called hFcγR IIa H
T2 sequence (looked up): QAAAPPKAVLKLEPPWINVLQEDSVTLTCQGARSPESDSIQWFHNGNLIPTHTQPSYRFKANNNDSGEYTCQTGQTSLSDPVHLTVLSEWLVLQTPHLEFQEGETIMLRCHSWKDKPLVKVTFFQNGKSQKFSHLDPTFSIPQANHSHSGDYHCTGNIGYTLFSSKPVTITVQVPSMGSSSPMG

T3: human FcγRIIb extracellular domain with C-terminal His-tag (human, UniProt P31994 43-217)
T3 construct: extracellular domain; also called hFcγR IIb
T3 sequence (looked up): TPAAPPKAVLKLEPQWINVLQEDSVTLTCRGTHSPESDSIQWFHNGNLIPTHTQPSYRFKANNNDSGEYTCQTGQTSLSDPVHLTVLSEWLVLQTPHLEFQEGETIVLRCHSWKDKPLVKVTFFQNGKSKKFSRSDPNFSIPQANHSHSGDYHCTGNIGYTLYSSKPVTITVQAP


Tests used:
[1] = molecular target: T4, human FcγRIa extracellular domain with C-terminal His-tag (human, UniProt P12314 16-292); assay: SPR Biacore T200, Ab captured via Fab-lambda, pH 7.4, 25C;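 note: antibodies captured on a streptavidin chip carrying biotinylated anti-Fab-lambda, with each FcγR injected as analyte in phosphate buffer. KD fitted by 1:1 Langmuir or steady-state model depending on receptor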
T4 construct: extracellular domain; also called hFcγR Ia; hFcγRIa
T4 sequence (P12314 16-292): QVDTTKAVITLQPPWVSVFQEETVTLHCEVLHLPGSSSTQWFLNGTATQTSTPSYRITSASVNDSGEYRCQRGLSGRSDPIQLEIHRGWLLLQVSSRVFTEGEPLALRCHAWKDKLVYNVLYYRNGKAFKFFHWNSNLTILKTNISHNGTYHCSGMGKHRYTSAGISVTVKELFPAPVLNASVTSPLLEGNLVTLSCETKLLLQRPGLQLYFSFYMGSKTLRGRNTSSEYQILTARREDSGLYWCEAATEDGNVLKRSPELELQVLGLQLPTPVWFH
Protocol: (§1) The interaction between the generated antibodies and human FcγRs was analyzed by the following method using Biacore T200. 50 mM Na-Phosphate, 150 mM NaCl, 0.05% Tween20 (pH 7.4) was used as the running buffer, and the assay was performed at 25° C. For the sensor chips, Series S SA (GE Healthcare) chips onto which CaptureSelect Human Fab-lambda Kinetics Biotin Conjugate (Thermo Fisher Scientific) was immobilized were used. The antibodies of interest were captured onto these chips and each FcγR diluted in the running buffer was allowed to interact with them. Chips were regenerated with 10 mM Glycine-HCl (pH 1.5) and 25 mM NaOH, and assay was performed by repeatedly capturing antibodies. The dissociation constants KD (mol/L) for FcγRs of each antibody were calculated using Biacore T200 Evaluation Software 2.0, using the 1:1 Langmuir binding model for FcγRIa and FcγRIIIa and the steady state affinity model for FcγRIIa. For FcγRIIb, the binding amount of FcγRIIb per unit amount of antibody was calculated by correcting the binding amount of FcγRIIb obtained from the sensorgram obtained by the measurement with the amount of antibody captured onto the chip surface.

[2] = molecular target: T1, human FcγRIIa R allotype extracellular …; assay: as above
Protocol: as §1

[3] = molecular target: T2, human FcγRIIa H allotype extracellular …; assay: as above
Protocol: as §1

[4] = molecular target: T5, human FcγRIIIa F allotype extracellular domain with C-terminal His-tag (human, UniProt P08637 17-208); assay: as above
T5 construct: extracellular domain; also called hFcγR IIIa F
T5 sequence (P08637 17-208): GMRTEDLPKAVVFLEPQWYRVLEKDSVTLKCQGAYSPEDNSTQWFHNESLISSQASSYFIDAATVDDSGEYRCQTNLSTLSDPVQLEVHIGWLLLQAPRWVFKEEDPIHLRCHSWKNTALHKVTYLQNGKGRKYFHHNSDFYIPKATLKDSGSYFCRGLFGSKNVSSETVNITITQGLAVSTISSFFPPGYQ
Protocol: as §1

[5] = molecular target: T6, human FcγRIIIa V allotype extracellular domain with C-terminal His-tag (human, UniProt P08637 17-208); assay: as above
T6 construct: extracellular domain; also called hFcγR IIIa V
T6 sequence (P08637 17-208 F176V): as the sequence (P08637 17-208) above, with F160V counted along it
Protocol: as §1

[6] = molecular target: T3, human FcγRIIb extracellular domain with …; assay: SPR; FcγRIIb at 1000 nM, bound amount per unit captured Ab
Protocol: as §1

[7] = molecular target: T4, human FcγRIa extracellular domain with …; assay: SPR; KD of 04H1637-G1m/04L1610-lam1 divided by KD of variant;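 note: biacore T200 SPR at 25 °C, antibodies captured on anti-Fab-lambda SA chip with receptor as analyte, running buffer pH 7.4 for FcγRs and pH 6.0 for FcRn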
Protocol: as §1
(§2) The interaction between the generated antibodies and human FcRn was analyzed by the following method using Biacore T200. 50 mM Na-Phosphate, 150 mM NaCl, 0.05% Tween20 (pH 6.0) was used as the running buffer, and the assay was performed at 25° C. For the sensor chip, Series S SA (GE Healthcare) chips onto which CaptureSelect Human Fab-lambda Kinetics Biotin Conjugate (Thermo Fisher Scientific) was immobilized were used. The antibodies of interest were captured onto these chips and FcRn diluted in the running buffer was allowed to interact with them. Chips were regenerated with 10 mM Glycine-HCl (pH 1.5) and 25 mM NaOH, and assay was performed by repeatedly capturing antibodies. The dissociation constant for FcRn of each antibody was calculated using the steady state model, using Biacore T200 Evaluation Software 2.0.

[8] = molecular target: T1, human FcγRIIa R allotype extracellular …; assay: as above
Protocol: as §1, §2

[9] = molecular target: T2, human FcγRIIa H allotype extracellular …; assay: as above
Protocol: as §1, §2

[10] = molecular target: T5, human FcγRIIIa F allotype extracellular …; assay: as above
Protocol: as §1, §2

[11] = molecular target: T6, human FcγRIIIa V allotype extracellular …; assay: as above
Protocol: as §1, §2

[12] = molecular target: T3, human FcγRIIb extracellular domain with …; assay: SPR; binding amount divided by that of 04H1637-G1m/04L1610-lam1

| Binder | Kd [1] [nM] | Kd [2] [nM] | Kd [3] [nM] | Kd [4] [nM] | Kd [5] [nM] | Binding amount [6] | Relative value to KD between G1m and hFcγRs [7] | Relative value to KD between G1m and hFcγRs [8] | Relative value to KD between G1m and hFcγRs [9] | Relative value to KD between G1m and hFcγRs [10] | Relative value to KD between G1m and hFcγRs [11] | Relative binding amount [12] |
| --- | --- | --- | --- | --- | --- | --- | --- | --- | --- | --- | --- | --- |
| 04H1637-Kn125/04L1610-lam1//04H1637-Hl076/04L1610-lam1 (antibody, human IgG1, lambda, Heterodimerized antibody, Fc variant of WO 2013/002362; also called 04H1637-Kn125/04L1610-lam1//04H1637-H1076/04L1610-lam1) heavy 1: QVQLVESGGGLVKPGGSLRLSCAASGFTFSSKTMNWVRQAPGKGLEWVSSISTQSHYIYYAESVRGRFTISRDNAKNSLYLQMNSLRAEDTAVYYCARYGKREDMLWVFDYWGQGTLVTVSSASTKGPSVFPLAPSSKSTSGGTAALGCLVKDYFPEPVTVSWNSGALTSGVHTFPAVLQSSGLYSLSSVVTVPSSSLGTQTYICNVNHKPSNTKVDKKVEPKSCDKTHTCPPCPAPEYQWGPMVFLFPPKPKDTLMISRTPEVTCVVVDVSDEEPEVKFNWYVDGVEVHNAKTKPREEQYNATYRVVSVLTVLHQDWLNGKEYKCKVSNKALPAPIEKTISKAKGQPREPQVCTLPPSRDELTKNQVSLWCLVKGFYPSDIAVEWESNGQPENNYKTTPPVLDSDGSFFLYSKLTVDKSRWQQGNVFSCSVMHEALHNHYTQKSLSLSP heavy 2: QVQLVESGGGLVKPGGSLRLSCAASGFTFSSKTMNWVRQAPGKGLEWVSSISTQSHYIYYAESVRGRFTISRDNAKNSLYLQMNSLRAEDTAVYYCARYGKREDMLWVFDYWGQGTLVTVSSASTKGPSVFPLAPSSKSTSGGTAALGCLVKDYFPEPVTVSWNSGALTSGVHTFPAVLQSSGLYSLSSVVTVPSSSLGTQTYICNVNHKPSNTKVDKKVEPKSCDKTHTCPPCPAPELLGGPSVFLFPPKPKDTLMISRTPEVTCVVVDVSHEEPEVKFNWYVDGVEVHNAKTKPREEQYNSTYRVVSVLTVLHQDWLNGKEYKCKVSNDALPMPIEETISKAKGQPREPQVYTLPPSRCELTKNQVSLSCAVKGFYPSDIAVEWESNGQPENNYKTTPPVLDSDGSFFLVSKLTVDKSRWQQGNVFSCSVMHEALHNHYTQKSLSLSP light: QSALTQPPSASGSPGQSVTISCEGPSTGVGDYNWVHWYQQHPGKAPKLMIYFTSKKPSGVPDRFSGSKSGNTASLTVSGLQAEDEADYYCQTYAAPLGPMFGGGTKLTVLGQPKAAPSVTLFPPSSEELQANKATLVCLISDFYPGAVTVAWKADSSPVKAGVETTTPSKQSNNKYAASSYLSLTPEQWKSHRSYSCQVTHEGSTVEKTVAPTECS | 0.04 | 1200 | 410 | 3.4 | 1.9 | 0.007 | 1.2 | 1.6 | 3.6 | 406 | 126 | 0.9 |
| 04H1637-Kn461/04L1610-lam1//04H1637-Hl443/04L1610-lam1 (antibody, human IgG1, lambda, Heterodimerized antibody; also called 04H1637-Kn461/04L1610-lam1//04H1637-H1443/04L1610-lam1) heavy 1: QVQLVESGGGLVKPGGSLRLSCAASGFTFSSKTMNWVRQAPGKGLEWVSSISTQSHYIYYAESVRGRFTISRDNAKNSLYLQMNSLRAEDTAVYYCARYGKREDMLWVFDYWGQGTLVTVSSASTKGPSVFPLAPSSKSTSGGTAALGCLVKDYFPEPVTVSWNSGALTSGVHTFPAVLQSSGLYSLSSVVTVPSSSLGTQTYICNVNHKPSNTKVDKKVEPKSCDKTHTCPPCPAPEFQWGPMVFLFPPKPKDVLMISRTPEVTCVVVDVSDEEPEVKFNWYVDGVEVHNAKTKPREEQYNATYRVVSVLPVLHQDWLNGKEYKCKVSNDALPAPEEKTISKAKGQPREPQVCTLPPSRDELTKNQVSLWCLVKGFYPSDIAVEWESNGQPENNYKTTPPVLDSDGSFFLYSKLTVDKSRWQQGNVFSCSVMHEALHNHYTQKSLSLSP heavy 2: QVQLVESGGGLVKPGGSLRLSCAASGFTFSSKTMNWVRQAPGKGLEWVSSISTQSHYIYYAESVRGRFTISRDNAKNSLYLQMNSLRAEDTAVYYCARYGKREDMLWVFDYWGQGTLVTVSSASTKGPSVFPLAPSSKSTSGGTAALGCLVKDYFPEPVTVSWNSGALTSGVHTFPAVLQSSGLYSLSSVVTVPSSSLGTQTYICNVNHKPSNTKVDKKVEPKSCDKTHTCPPCPAPELLAGPSVFLFPPKPKDVLMISRTPEVTCVVVDVSHEEPEVKFNWYVDGVEVHNAKTKPREEQYNATYRVVSVLPVLHQDWLNGKEYKCKVSNDALPAPEEETISKAKGQPREPQVYTLPPSRCELTKNQVSLSCAVKGFYPSDIAVEWESNGQPENNYKTTPPVLDSDGSFFLVSKLTVDKSRWQQGNVFSCSVMHEALHNHYTQKSLSLSP light: QSALTQPPSASGSPGQSVTISCEGPSTGVGDYNWVHWYQQHPGKAPKLMIYFTSKKPSGVPDRFSGSKSGNTASLTVSGLQAEDEADYYCQTYAAPLGPMFGGGTKLTVLGQPKAAPSVTLFPPSSEELQANKATLVCLISDFYPGAVTVAWKADSSPVKAGVETTTPSKQSNNKYAASSYLSLTPEQWKSHRSYSCQVTHEGSTVEKTVAPTECS | 0.042 | 190 | 130 | 2.2 | 1.1 | 0.025 | 1.2 | 10.7 | 11.1 | 616 | 226 | 3.1 |
| 04H1637-Kn462/04L1610-lam1//04H1637-Hl445/04L1610-lam1 (antibody, human IgG1, lambda, Heterodimerized antibody; also called 04H1637-Kn462/04L1610-lam1//04H1637-H1445/04L1610-lam1) heavy 1: QVQLVESGGGLVKPGGSLRLSCAASGFTFSSKTMNWVRQAPGKGLEWVSSISTQSHYIYYAESVRGRFTISRDNAKNSLYLQMNSLRAEDTAVYYCARYGKREDMLWVFDYWGQGTLVTVSSASTKGPSVFPLAPSSKSTSGGTAALGCLVKDYFPEPVTVSWNSGALTSGVHTFPAVLQSSGLYSLSSVVTVPSSSLGTQTYICNVNHKPSNTKVDKKVEPKSCDKTHTCPPCPAPEFQWGPMVFLFPPKPKDVLMISRTPEVTCVVVDVSDEEPEVKFNWYVDGVEVHNAKTKPREEQYNATYRVVSVLPVLHQDWLNGKEYKCKVSNDALPAPIEKTISKAKGQPREPQVCTLPPSRDELTKNQVSLWCLVKGFYPSDIAVEWESNGQPENNYKTTPPVLDSDGSFFLYSKLTVDKSRWQQGNVFSCSVMHEALHNHYTQKSLSLSP heavy 2: QVQLVESGGGLVKPGGSLRLSCAASGFTFSSKTMNWVRQAPGKGLEWVSSISTQSHYIYYAESVRGRFTISRDNAKNSLYLQMNSLRAEDTAVYYCARYGKREDMLWVFDYWGQGTLVTVSSASTKGPSVFPLAPSSKSTSGGTAALGCLVKDYFPEPVTVSWNSGALTSGVHTFPAVLQSSGLYSLSSVVTVPSSSLGTQTYICNVNHKPSNTKVDKKVEPKSCDKTHTCPPCPAPELLAGPSVFLFPPKPKDVLMISRTPEVTCVVVDVSHEEPEVKFNWYVDGVEVHNAKTKPREEQYNATYRVVSVLPVLHQDWLNGKEYKCKVSNDALPKPDEETISKAKGQPREPQVYTLPPSRCELTKNQVSLSCAVKGFYPSDIAVEWESNGQPENNYKTTPPVLDSDGSFFLVSKLTVDKSRWQQGNVFSCSVMHEALHNHYTQKSLSLSP light: QSALTQPPSASGSPGQSVTISCEGPSTGVGDYNWVHWYQQHPGKAPKLMIYFTSKKPSGVPDRFSGSKSGNTASLTVSGLQAEDEADYYCQTYAAPLGPMFGGGTKLTVLGQPKAAPSVTLFPPSSEELQANKATLVCLISDFYPGAVTVAWKADSSPVKAGVETTTPSKQSNNKYAASSYLSLTPEQWKSHRSYSCQVTHEGSTVEKTVAPTECS | 0.076 | 110 | 39 | 3.6 | 1.8 | 0.03 | 0.6 | 18.7 | 37.5 | 382 | 131 | 3.7 |

Reference: US20260022175A1 (Chugai, published 2026)
